Measured values published in patent publication US20080038256A1 (SEOUL NATIONAL UNIVERSITY INDUSTRY FOUNDATION, published 2008).
Changes are numbered by the printed parent chain.

B1: HSFN 68-13 Fab (Fab, V domains shown)
VH: QQQLVESGGGVVRPGGSLRLSCAASGFTFSTYYMSWVRQAPGKGLEWIGYIGTSSGTTYYANSVKGRFTISSDNAKNSVYLQMNSLRPEDTAVYYCARGLGRINLWGPGTLVTVSS
VL: ELQMTQSPSSLSASVGDRVTITCRASQSISTWLAWYQQKPGKAPKLLIYKASTLESGVPLRFSGGGSGTDFTLTISSLQSEDFATYFCQQSYSLPPTFGQGTKVEVKR
notes: also called anti-HGF/SF Fab humanized antibody
B2: HSFN 68-41 Fab (Fab, V domains shown)
VH: B1 VH with V11L, R13Q, I48V, P108Q
VL: ELQMTQSPSSVSASVGDRVTISCRASQDIRSLLAWYQQKPGKAPKLLIYKASTLESGVPSRFSGSGSGTEFTLTISNLQPDDFATYYCQQYSRYSGGTFGQGTKVEIRR
notes: Fab with human Ckappa and human CH1, expressed from pComb3X in E. coli HB2151
B3: HSFN 68-16 Fab (Fab, V domains shown)
VH: B1 VH with V11L, R13Q, V37I, K76Q, P108Q
VL: B2 VL with Q3V, S10T, V11L, S22T, D28S, R30S, L32W, P59S, S65G, N77S
notes: as for B2
B4: HSFN 68-27 Fab (Fab, V domains shown)
VH: B1 VH with Q2V, V11L, R13K, L18R, K76Q, P108Q
VL: ELQMTQSPSTLSASVGDRVTITCRASQSISSRLAWYQQKPGKAPKLLIYRASTLEGGVPSRFSGSGSGTEFTLTISGLQPDDFATYYCQQYSTFSPTFGQGTQVDIKR
notes: as for B2

Tests used:
[1] = biological target: T1, HGF/SF (hepatocyte growth factor/scatter factor) (UniProt P14210 32-728, limits assumed); assay: competition ELISA: HGF/SF coated on the plate, cMET/Fc chimera as the blocked ligand mixed with the varied Fab, bound cMET/Fc detected with HRP anti-human Fc, Abs. at 450 nm, triplicates
T1 sequence (P14210 32-728 limits assumed): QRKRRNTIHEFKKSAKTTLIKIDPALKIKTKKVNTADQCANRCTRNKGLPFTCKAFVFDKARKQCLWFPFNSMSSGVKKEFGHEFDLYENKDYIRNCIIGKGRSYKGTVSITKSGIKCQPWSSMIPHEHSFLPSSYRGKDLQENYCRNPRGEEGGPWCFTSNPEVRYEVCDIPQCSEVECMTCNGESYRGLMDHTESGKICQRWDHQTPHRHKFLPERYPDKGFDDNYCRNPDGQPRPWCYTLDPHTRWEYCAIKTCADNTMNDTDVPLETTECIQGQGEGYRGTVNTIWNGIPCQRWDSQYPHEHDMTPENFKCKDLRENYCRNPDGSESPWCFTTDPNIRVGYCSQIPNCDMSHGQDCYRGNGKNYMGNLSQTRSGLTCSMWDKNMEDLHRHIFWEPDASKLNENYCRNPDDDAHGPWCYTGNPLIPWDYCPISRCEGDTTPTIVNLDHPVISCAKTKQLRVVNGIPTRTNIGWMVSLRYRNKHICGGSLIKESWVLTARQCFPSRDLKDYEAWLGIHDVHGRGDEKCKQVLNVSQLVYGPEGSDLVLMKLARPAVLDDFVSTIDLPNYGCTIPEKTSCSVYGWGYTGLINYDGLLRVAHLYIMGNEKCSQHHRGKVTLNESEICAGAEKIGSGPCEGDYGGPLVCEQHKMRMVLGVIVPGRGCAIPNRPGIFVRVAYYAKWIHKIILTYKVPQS
Experimental: A 96-well microplate was coated with 1 μg/ml of HGF/SF and blocked by repeating the procedure of (2-2) of Example 2. Then 25 μl of 2 nM cMET/Fc chimera (R&D systems, USA) mixed with 25 μl of 0 to 200 nM HSFN 68-13 or SFN 68 dissolved in TBSB was added to the HGF/SF coated wells. The plate was incubated for at 37° C. 1 hour and washed with TBS-T. The amount of bound cMET/Fc chimera was assessed with HRP-conjugated rabbit anti-human Fc specific IgG (Pierce) using ultra-TMB substrate solution (Pierce) as a substrate. After 30 min incubation, optical density was measured at 450 nm. All experiments were performed in triplicates, and the average and standard deviation of the optical densities are listed in FIG. 5.

[2] = biological target: T1, HGF/SF (hepatocyte growth …); assay: affinity examination of the HSFN 68 clones on HGF/SF, reference SFN68; method not named in this paragraph
[3] = biological target: T1, HGF/SF (hepatocyte growth …); assay: SPR (BIAcore), HGF/SF immobilized
Experimental: (§1) The binding affinity of the anti-HGF/SF Fab humanized antibody to HGF/SF was determined by SPR (Surface plasmon Resonance) on a BIAcore device (BIAcore, Sweden).
(§2) Specifically, HGF/SF was immobilized on a carboxymethyldextran-modified (CM5) sensor chip (Biacore AB) using 10 mM sodium acetate buffer (pH 4.0) at a flow rate of 5 μl/min with an amine coupling kit (Biacore AB) in accordance with the instruction of the kit. Then 4 anti-HGF/SF Fabs and SFN 68 as a control dissolved in phosphate buffered saline (PBS, pH 7.4) containing 0.005% Tween 20 (Sigma) was injected on the chip at 25° C. for 2 min at a flow rate of 30 μl/min, respectively. The anti-HGF/SF Fab humanized antibody was diluted to a varying concentration in the range of 1.25 to 200 nM. The surface was regenerated with 1 M NaCl/50 mM NaOH. The kinetic rate constants (kₒₙ and koff) as well as the equilibrium dissociation constant (KD) were determined by using BIA evaluation software.

[4] = biological target: T1, HGF/SF (hepatocyte growth …); assay: SPR (BIAcore), HGF/SF immobilized on CM5 chip, Fab injected
Experimental: as §1, §2

| Binder | IC50 (read off the curve) [1] [nM] | fold higher affinity than SFN68 [2] [fold] | fold tighter affinity than SFN68 control [3] [fold] | Kd [4] [nM] | kon [4] [M⁻¹ s⁻¹] |
| --- | --- | --- | --- | --- | --- |
| B1 | ~2 | ~6 | ~6 | 2.09 | 647000 |
| B2 | – | – | – | 10.6 | 106000 |
| B3 | – | – | – | 43.1 | 32400 |
| B4 | – | – | – | 5.27 | 392000 |
